Assay results as given in patent US20240270813A1 (UNIVERSITY OF PITTSBURGH OF THE COMMONWEALTH SYSTEM OF …, published 2024).
Positions count from the first letter of the chain named. Where “and” joins values, the source holds several entries; their conditions need not be identical. Equal entries are not always repeated. Blank lines part the entries; values can stand above or below the binder they belong to.

Columns and labels:
[1] = target: T1, minor histocompatibility antigen HA-1, immunogenic H variant peptide on HLA-A*02:01 (human); test: CD69 on TCR-transduced Jurkat J.RT3-T3.5-CD8; overnight with A*0201 LCLs (1:1) and titrated HA-1 H peptide; given as a range, upper bound given; full-length, on cells
T1 peptide: VLHDDLLEA

[2] = target: T1, minor histocompatibility antigen HA-1, …; test: multimer staining

EC50 of peptide [1]: ≤ 100 ng/mL and ≤ 100 nM
B1: TCR G (TCR, V domains shown)
Valpha: SQQGEEDPQALSIQEGENATMNCSYKTSINNLQWYRQNSGRGLVHLILIRSNEREKHSGRLRVTLDTSKKSSSLLITASRAADTASYFCAGTGANNLFFGTGTRLTVIP
Vbeta: DTGVSQDPRHKITKRGQNVTFRCDPISEHNRLYWYRQTLGQGPEFLTYFQNEAQLEKSRLLSDRFSAERPKGSFSTLEIQRTEQGDSAMYLCASSLIRGETQYFGPGTRLLVL

EC50 of peptide [1]: ≤ 100 ng/mL and ≤ 100 nM
B2: TCR I (TCR, V domains shown)
Valpha: KQEVTQIPAALSVPEGENLVLNCSFTDSAIYNLQWFRQDPGKGLTSLLLIQSSQREQTSGRLNASLDKSSGRSTLYIAASQPGDSATYLCAVRGTTSGTYKYIFGTGTRLKVLA
Vbeta: B1 Vbeta with L96F, I97L, R98A

EC50 of peptide [1]: ≤ 100 ng/mL and ≤ 100 nM
B3: TCR N (TCR, V domains shown)
Valpha: GENVEQHPSTLSVQEGDSAVIKCTYSDSASNYFPWYKQELGKRPQLIIDIRSNVGEKKDQRIAVTLNKTAKHFSLHITETQPEDSAVYFCAAIVGNQFYFGTGTSLTVIP
Vbeta: B1 Vbeta with L96E, I97T, R98T, G99L, E100S, T101E, Y103F, L111T

EC50 of peptide [1]: ≤ 1000 ng/mL and ≤ 1 µM
B4: TCR Q (TCR, V domains shown)
Valpha: GENVEQHPSTLSVQEGDSAVIKCTYSDSASNYFPWYKQELGKRPQLIIDIRSNVGEKKDQRIAVTLNKTAKHFSLHITETQPEDSAVYFCAASNPTGANSKLTFGKGITLSVRP
Vbeta: B1 Vbeta with I97V, G99N, T101K, Q102L, Y103F, P106S, R109Q, L111S

EC50 of peptide [1]: ≤ 100 ng/mL and ≤ 100 nM
B5: TCR M (TCR, V domains shown)
Valpha: B2 Valpha with T95S
Vbeta: B1 Vbeta with I97V, R98A

EC50 of peptide [1]: ≤ 100 ng/mL and ≤ 100 nM
B6: TCR O (TCR, V domains shown)
Valpha: B3 Valpha with A92M, I93R, V94N, G95N, Q97D, F98M, Y99R, T102A, S105R, I109K
Vbeta: B1 Vbeta with I97T, R98T, G99L, E100D, L111T

EC50 of peptide [1]: ≤ 100 ng/mL and ≤ 100 nM
B7: TCR J (TCR, V domains shown)
Valpha: QKEVEQDPGPLSVPEGAIVSLNCTYSNSAFQYFMWYRQYSRKGPELLMYTYSSGNKEDGRFTAQVDKSSKYISLFIRDSQPSDSATYLCAMRATSGTYKYIFGTGTRLKVLA
Vbeta: DTGVSQDPRHKITKRGQNVTFRCDPISEHNRLYWYRQTLGQGPEFLTYFQNEAQLEKSRLLSDRFSAERPKGSFSTLEIQRTEQGDSAMYLCAVPGGSSYNEQFFGPGTRLTVL

binding result [2]: recognises
B8: TCR A (TCR, V domains shown)
Valpha: AQSVAQPEDQVNVAEGNPLTVKCTYSVSGNPYLFWYVQYPNRGLQFLLKYITGDNLVKGSYGFEAEFNKSQTSFHLKKPSALVSDSALYFCAVRGGSYKYIFGTGTRLKVLA
Vbeta: B7 Vbeta with V94S, P95T, G96P, S98T, S99V

EC50 of peptide [1]: ≤ 100 ng/mL and ≤ 100 nM
B9: TCR K (TCR, V domains shown)
Valpha: DAKTTQPNSMESNEEEPVHLPCNHSTISGTDYIHWYRQLPSQGPEYVIHGLTSNVNNRMASLAIAEDRKSSTLILHRATLRDAAVYYCILRAGSGTYKYIFGTGTRLKVLA
Vbeta: B7 Vbeta with V94S, P95S, G96P, S98T, S99V

EC50 of peptide [1]: ≤ 100 ng/mL and ≤ 100 nM
B10: TCR P (TCR, V domains shown)
Valpha: AQSVSQHNHHVILSEAASLELGCNYSYGGTVNLFWYVQYPGQHLQLLLKYFSGDPLVKGIKGFEAEFIKSKFSFNLRKPSVQWSDTAEYFCAVRDSGAGSYQLTFGKGTKLSVIP
Vbeta: B7 Vbeta with V94S, P95L, G96T, S98T, S99V

EC50 of peptide [1]: ≤ 1000 ng/mL and ≤ 1 µM
B11: TCR S (TCR, V domains shown)
Valpha: DAKTTQPPSMDCAEGRAANLPCNHSTISGNEYVYWYRQIHSQGPQYIIHGLKNNETNEMASLIITEDRKSSTLILPHATLRDTAVYYCIVRASTSGTYKYIFGTGTRLKVLA
Vbeta: B7 Vbeta with V94S, P95S, G96P, S98T, S99V

EC50 of peptide [1]: ≤ 1000 ng/mL and ≤ 1 µM
B12: TCR T (TCR, V domains shown)
Valpha: SQQGEEDPQALSIQEGENATMNCSYKTSINNLQWYRQNSGRGLVHLILIRSNEREKHSGRLRVTLDTSKKSSSLLITASRAADTASYFCATPSGNTPLVFGKGTRLSVIA
Vbeta: B7 Vbeta with F45L, V94S, P95S, G96Q, G97L, S98A, S99G, Y100V, N101I

EC50 of peptide [1]: ≤ 100 ng/mL and ≤ 100 nM
B13: TCR L (TCR, V domains shown)
Valpha: KQEVTQIPAALSVPEGENLVLNCSFTDSAIYNLQWFRQDPGKGLTSLLLIQSSQREQTSGRLNASLDKSSGRSTLYIAASQPGDSATYLCAVTRTGANNLFFGTGTRLTVIP
Vbeta: DTGVSQDPRHKITKRGQNVTFRCDPISEHNRLYWYRQTLGQGPEFLTYFQNEAQLEKSRLLSDRFSAERPKGSFSTLEIQRTEQGDSAMYLCASSLGVLGIGYTFGSGTRLTVV

EC50 of peptide [1]: ≤ 1000 ng/mL and ≤ 1 µM
B14: TCR R (TCR, V domains shown)
Valpha: SQQGEEDPQALSIQEGENATMNCSYKTSINNLQWYRQNSGRGLVHLILIRSNEREKHSGRLRVTLDTSKKSSSLLITASRAADTASYFCATEMNSNYQLIWGAGTKLIIKP
Vbeta: DTGVSQDPRHKITKRGQNVTFRCDPISEHNRLYWYRQTLGQGPEFLTYFQNEAQLEKSRLLSDRFSAERPKGSFSTLEIQRTEQGDSAMYLCASSPLKGSNYGYTFGSGTRLTVV

EC50 of peptide [1]: ≤ 100 ng/mL and ≤ 100 nM
B15: TCR B (TCR, V domains shown)
Valpha: SQQGEEDPQALSIQEGENATMNCSYKTSINNLQWYRQNSGRGLVHLILIRSNEREKHSGRLRVTLDTSKKSSSLLITASRAADTASYFCATAPGSGTYKYIFGTGTRLKVLA
Vbeta: DTGVSQDPRHKITKRGQNVTFRCDPISEHNRLYWYRQTLGQGPEFLTYFQNEAQLEKSRLLSDRFSAERPKGSFSTLEIQRTEQGDSAMYLCAAPPDTYNSPLHFGNGTRLTVT

binding result [2]: recognises
B16: TCR C (TCR, V domains shown)
Valpha: B2 Valpha with G94P, T95R
Vbeta: DTGVSQDPRHKITKRGQNVTFRCDPISEHNRLYWYRQTLGQGPEFLTYFQNEAQLEKSRLLSDRFSAERPKGSFSTLEIQRTEQGDSAMYLCASTELSGNTIYFGEGSWLTVV

EC50 of peptide [1]: ≤ 100 ng/mL and ≤ 100 nM
B17: TCR H (TCR, V domains shown)
Valpha: GENVEQHPSTLSVQEGDSAVIKCTYSDSASNYFPWYKQELGKRPQLIIDIRSNVGEKKDQRIAVTLNKTAKHFSLHITETQPEDSAVYFCAAPLAGGGADGLTFGKGTHLIIQP
Vbeta: DTGVSQDPRHKITKRGQNVTFRCDPISEHNRLYWYRQTLGQGPEFLTYFQNEAQLEKSRLLSDRFSAERPKGSFSTLEIQRTEQGDSAMYLCASSTTLITGYTFGSGTRLTVV
